Assay results reported in paper PMC4357719, “Roles of Rad51 paralogs for promoting homologous recombination in Leishmania infantum”.

Assays:
[1] = molecular target: T1, LiRad51-3 (in 3-4-6 complex);LiRad51-4 (in 3-4-6 complex);LiRad51-6 (in 3-4-6 complex) (Leishmania infantum;Leishmania …, UniProt E9AHR7;A4HUT5;A4I499 1-687;1-518;1-649, ||); assay: competition EMSA; 0-40 nM complex; preferred substrate in mixture; 25 mM MOPS pH 7.0, 0.2% Tween-20, 1 mM CaCl2, 2 mM DTT; 25 nM 32P-DNA; 37 C 10 min, then 0.2% glutaraldehyde 15 min; 8% TBE acrylamide gel; conditions: protein: recombinant;recombinant;recombinant; copies: 1;1;1; label: 32P on strand 3 (JYM1745); D-loop: 1:2 with unpaired bubble, 3 paired to 2 in the bubble
[2] = molecular target: T1, LiRad51-3 (in 3-4-6 complex);LiRad51-4 …; assay: competition EMSA; 0-40 nM complex; mixture; 25 mM MOPS pH 7.0, 0.2% Tween-20, 1 mM CaCl2, 2 mM DTT; 25 nM 32P-DNA; 37 C 10 min, then 0.2% glutaraldehyde 15 min; 8% TBE acrylamide gel; conditions: protein: recombinant;recombinant;recombinant; copies: 1;1;1; label: 32P on strand 1; fork 1:2

Row | Binder | binding result [1] | binding result [2]
1 | D-loop (JYM1395/JYM1396/JYM1745) (structured_DNA) DNA 1: GCCAGGGACGGGGTGAACCTGCAGGTGGGCGGCTGCTCATCGTAGGTTAGTATCGACCTATTGGTAGAATTCGGCAGCGTCATGCGACGGC DNA 2: GCCGTCGCATGACGCTGCCGAATTCTACCACGCTACTAGGGTGCCTTGCTAGGACATCTTTGCCCACCTGCAGGTTCACCCCGTCCCTGGC DNA 3: AAGATGTCCTAGCAAGGCACCCTAGTAGC | binds | 
2 | splayed arm (JYM925/JYM926) (structured_DNA) DNA 1: GGGTGAACCTGCAGGTGGGCAAAGATGTCCTAGCAATGTAATCGTCAAGCTTTATGCCGT DNA 2: ACGCTGCCGAATTCTACCAGTGCCAGCGACGGACATCTTTGCCCACCTGCAGGTTCACCC |  | binds
